Experimental data: the nanobody polyreactivity screen of Harvey et al. (2022)

Assay: yeast display, Sf9 membrane polyspecificity reagent, FACS + sequencing; frameworks hold sequencing errors
Method in brief: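 Polyreactivity labels are assigned by the sorting gate from which each nanobody was recovered. The gates were low and high (top ~1%), set on anti-HA fluorescence for expression and streptavidin fluorescence for reagent binding. Before sorting, galactose-induced (36–48 hours) yeast display cells were stained for 1 hour at 4 °C with 10% biotinylated, detergent-solubilized Sf9 membrane reagent.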

| Sequence | polyreactivity (PSR sort gate) |
| --- | --- |
| QVQLEESGGGLVQAGGSLRLSCAASGSTCPTNAIGWYRQAPRKERELVADITIRRGGTSYADSVKGRFTMSRDNAKNTVYLQMNSLKPEDTAVYYCARSKSTELKRLLYDSWGQGTQVTVSS | low polyreactivity |
| QVQLEESGGGLVQAGGSLRLSCAASGSTFDFNAMGWYRQVPGKERELVAAITSGGSTNYADSVKGRFTISRDNAKNTVYLQMNSLKPEDTAVYYCAARPARGDSQGGYVRPWCYDSWGQGTQVTGSS | low polyreactivity |
| QVQLEESGGGLVQAGGSLRLSCAASGSTFGFYAMRWYRQAPGKERDLVAAISSAARTYYADSVKGRFTISRDNAKNTVYLQMNSLKPADTAVYYCSAEAYHWTSYIGYGGVYYWGQGTQVTGSS | low polyreactivity |
| QVQLEESGGGLVQAGGSLRLSCAASGSTFVVYAMGWYRQAPGKERELVAAISGRGGRTYYADSVKGRFTISRDNAKNTVYLQMISLKPEDTAVYYCSTRYNNLYTIRVGEYDSWGQGTQVTVSS | high polyreactivity |
| QVQLEESGGGLVQAGGSLRLSCAASGSTFVYNALGWNRQAPGKEREFVAVINWSGGRTYADSVKGRFTISRDNAKTTVYLQMNSLNPDETEVYYCNAERRSYRFALQYRRYDYWGEGTQVTVSS | high polyreactivity |
| QVQLEESGGGLVQAGGSLRLSCAASGSTFWFNAMGWYRQAPGKERELVAVITWSGDGTYYADSVKGRFTISRDNANYTVYLQRNSLKPEDTAVYYCAKGFERYPWYDYWGQGTQVTVSS | low polyreactivity |
| QVQLEESGGGLVQAGGSLRLSCAASGSTFYEYAMGWYRQAPGKERELVAAITTVGSTNYADSLKGRFTISRDNAKNTVYLQMNSLKPEDTAVYYCNKRPVILYDYWGLGTQVTVSS | low polyreactivity |
| QVQLEESGGGLVQAGGSLRLSCAASGSTFYIYAMGSYRQAPGKERELVARMSGSGGSTYYADSVKGRFTISRDNAKNTVYLQMNSVKPEDTAVYYCAADDIYKYYQYYAFPYYRYDYWGQGTQVTVSS | low polyreactivity |
| QVQLEESGGGLVQAGGSLRLSCAASGSTFYPYAMGWYIQAPGTERELVAAISSRDGRTYYADSVKGRFTISRDNAKNTVYLQMNSLTPEDTAVYYCAASSFNNGHRYDYWGQGTQVTVSS | high polyreactivity |
| QVQLEESGGGLVQAGGSLRLSCAASGSTNVKYAMGWYRQAPGKERELVAAITYSGDSTYYADSLKGRFTSSRDNAKNTVYLQINSLKPEDTAVYYWAAELVVRYMVSDYELEYWGQGTQVTVSS | low polyreactivity |
| QVQLEESGGGLVQAGGSLRLSCAASGSTYPSNAMGWYRQATGKERELVATITTGGSTYYADSVKGRFTISRDNAKNTVYLQMNSLKPEDTAVYYCNAEYVYLIFSVYLYDYDYWGLGTQVTVSS | low polyreactivity |
| QVQLEESGGGLVQAGGSLRLSCAASGYILNDYTKGWYRQAPGKERELVAAITSSGDRTYYADSVKGRFTISRDNAKNTVYLQMNSLNPEDTAVYYCAADIYLGDYYYWGLGTQVTVSS | low polyreactivity |
| QVQLEESGGGLVQAGGSLRLSCAASGYTFSHYAIGWYRQAPGKERELVAGITWSGGSTYYADSVKGRFTISRDYAKNTVYLQMNSLKPEDTSVYYCAAKYYWYYSYSGIPLFDYWGQGTQVTVSS | low polyreactivity |
| QVQLEESGGGLVQAGGSLRLSCAASGYTFYLYAMAWYRQSPGKERELVAAISTNGGRTYYADSVKGRFTISRDNAKNTVYLQMNSLKPEDTAVYYCAVRSRGTAPQYYYWGQGTQVTVSS | high polyreactivity |
| QVQLEESGGGLVQAGGSLRLSCAASGYTFYRYTMGWYRQAPGKERELVAAISSRGGSKYYADSVKGRFTISRDNAKNTVYLQMNSLKPEDTAVYFCARKYPRKTLSKGFDYWGQGTQVTVSS | high polyreactivity |
| QVQLEESGGGLVQAGGSLRLSCADSGRTFRFYTIGWYRQAPGKERELVASISWGGTSTYYADSVKGRFTISRDNANNTVYLQMISLKPEDTAVYSCAAPRWVEGFRFDYWGQGTQVTVSS | high polyreactivity |
| QVQLEESGGGLVQAGGSLRLSCAGSGRIFIHYTMGWYRQAPGKERELVAAISTSGGSTYYADSVKGRFTISRDTAKNTVYLQMKSLKPEDTAGYYCAPVYRGYSGEGYYWGQGSQVTVSS | high polyreactivity |
| QVQLEESGGGLVQAGGSLRLSCDASGFTFAYYAMGWYRPAPGKEREFVAAITKGGGSTNYADSVKGRFTISRDNAKNTVYLQMNSLKPEDTAVYYCNADYFVWYIGRVFSRYGYWGLGTQVTVSS | low polyreactivity |
| QVQLEESGGGLVQAGGSLRLSCPASGRTFHGYAMGSYRQAPGKERELVAAITGTGGRTYYADSVKGRFTISRDNAKNTVYLQMNSLKPEDTAVYYCAARPWIKSGYWGQGTQVTVSS | high polyreactivity |
| QVQLEESGGGLVQAGGSLRLSCVASGSTFRFYAMGWYRPAPGNERQLVAAITWRGTSTYYADSVKGRFTISRDNAKNSVYLQMNSLKPEDTAVYYCNAAGYWPATGDYWGQGTQVTVSS | high polyreactivity |
| QVQLEESGGGLVQAGGSLRLSFAAYGRTFGTNPMGWYRQATGKERELVAAITKSSSRTYYADSVKGRFTISRDNAKNTVYLQMNSLKPEDTAVYYCAARYYAVGGYDYWGQGTQVTVSS | high polyreactivity |
| QVQLEESGGGLVQAGGSLRLTCAASGFTFGYYTMGWYRQAPGQERELVAAISSGGSTNYADSVKGRFTISRDNAKNTVYLEMNSLKPEDTAVYYCTATQIGPYYLPFDSWGQGTQVTVSS | high polyreactivity |

| Sequence | polyreactivity (PSR sort gate) |
| --- | --- |
| QVQLEESGGGLVQAGGSLRLTCAASGFTINEYAMGRYIQAPGKERELVAAISRGGTTYYADSVKGRFTISRDNAKNTVYLQMNSLKPEDTAVYYCAAPYFWNTEMDYWGQGTQVSVSS | low polyreactivity |
| QVQLEESGGGLVQAGGSLRLTCAASGLIFHDYAMGWYRQATGTEMELVAAISWSDGTTYYADSVKGRFTISRDNAKITVYLQMNSLKPEDTAVYYCAAEEVSGWEYDFWGQGTQVTVSS | high polyreactivity |
| QVQLEESGGGLVQAGGSLRLTCAASGRIFYRNSMGWYRQATGKERELVATISGRGGSTYYADSVKGRFTISRDNAKNTDYLQMNSLKPEDTAVYYCAVRNHGSVRWTGESWGQGTQVTVSS | high polyreactivity |
| QVQLEESGGGLVQAVGSLRLSCAASGFIFKRNAMGWYRQAPGKERELVAAITSRGGHTYYADSVKGRFTISRDNAKNTVYLQMNSLKAEDTAVYYCAATYASHDDYWGQGTQVTVSS | high polyreactivity |
| QVQLEESGGGVVQAGGSLRLSCAASGGTFSRYAMGWYRQATGKERELVAAITRSGASTFYADSVKGRFTISRDNAKNTVYLQMNSLKPEDTAVYYCAADTYVYNEYDYWGQGTQVTVSS | high polyreactivity |
| QVQLEESGGRLVQAGCSLRLSCAASGRTFDYYAMGWYRQAPGKEWELVAAITASGGSTFYADSVKGRFTISRDNAKNTVYLQMYSMKPEDTAVYYCAGRYTWRYFIKYGYWGQGTQVTVSS | high polyreactivity |
| QVQLEESGGRLVQAGCSLRLSCAASGYIFRKYAMGWYRQAPGKEWELVADISSSGGSTYYADSVKGRFTISRDNAKNTVYLQMNSLKPEDTAGYYCAKDRKSSRRINRMDYWGQGTQVTVSS | high polyreactivity |
| QVQLEESGGRLVQAGGRLRLNCAASGLTFNTNSMGWYRKAPGKERELVAAISRGGGSTYYADSVKGRFTISRDNAKNSVYLQMNSLKPEDTAVYYCNAEKSASYLLYDYWGQGTLVTVSS | high polyreactivity |
| QVQLEESGGRLVQAGGSLRLICAASGSTFLANAMGWYRQAPGKERELVATISSGGSTNYADSVKGRFTISRDNAKNTVYLQMNSLKPEDTAVYYCAAEYWYAWQEYGYWGQGTQVTVSS | low polyreactivity |
| QVQLEESGGRLVQAGGSLRLSCAASGRTFYPYAMGWYRQAPGKERELVAAISYRGGSTYYADSVKGRFTISRDNAKNTVYLQMNSLKPEDTAVYYCAKRGYASGSKWDYGYWGQGTQVTVSS | high polyreactivity |
| QVQLEESGGSLVQAGGSLRLSCAASGRTFYHYAMGWYRPAPGKERQLVAAISSGGSTKYADSVKGRFTISRDNAKNTVYLQMNSLKPEDTAVYYCAARTYQKGGRYYYWGQGTHVTVSS | high polyreactivity |
| QVQLEESGLALVQAGGSLRLSCADSGRIFRKKAMGWYRQAPGKERELVAAISSSGSTYYADSVKGRFKISRDNAKNTVYLQMNSLKPVDTAVYYCAARYQYGNRRGRDYWGQGTQVTVSS | high polyreactivity |
| QVQLEESGRGLVQAGGSLRLSCAASGSTLSTYSMGWYRQAPGKERELVAAITWSDDSTYYADSVKGRFTISRDNAKNTFYLQMNSLKPEDTAVYYCAAEYISWYFGYDYWGQGTQVTVSS | high polyreactivity |
| QVQLEESGVGLVQAGGSLRLSCAASGSIIHYNAMGWYRKAPGKERELVASISSGGRTYYADSVKGRFTISRDNAKNTVYLQMNSLNQEDTAVYYCAAEYYQTTYVWWTYDYSWGLGTQVTVSS | low polyreactivity |
| QVQLEESRGGLVQAGGSLRLSCAASGSILTGYAMGLSRQAPGKERELVAAINFSGDNTYYADSVKGRFTISRDNAKNSVYLQMNSLKPEDTAVYYCNARNAVEDDYWGQGTQVTVSS | low polyreactivity |
| QVQLEESVGGLDQAGGSLRLSCAASGHIIVYYPLGWYRQAPGKERELVAAITSGGSTNYADSGKGRFTISRDNAKNTVYLQMNSLKPADSAVYYCAARQWFSHRRWGGSRYDYWGQGTQVTVSS | low polyreactivity |
| QVQLEESVGGLVQAGCSLRLSCAASGGIFWVYAMGWYRQAPGKERELVAAISNSDTSTSYADSVKGRFTISRDNAKNTVYLQMNSLKPEDTAVYYCNADSPSLSGDYWGQGTQVTVSS | low polyreactivity |
| QVQLEESVGGLVQAGGSLRLSCAASGLTFRAYAMGWYRQAPGKERELVAAISSGGSTSYADSVKGRFTISRDNANITVYLQMNRLKPEDSAVYYCAADRARRGIRDYYWGQGTQVTVSS | high polyreactivity |
| QVQLEESVGGLVQAGGSLRLTCAASGSTLSYYSMGWYRQAPGKERELVARITRSGGRTYYADSVKGRFTISRDNEKNTVYLQINSLKPEDTGVYYCNKVAYYSRRMDYWGQGTLVTVSS | high polyreactivity |
| QVQLEESVGGLVQAGRSLRLSCASSGTTFYYYALGWYRQAPGKERELVATIDSGTSTYYADSVKGRFTISRDNAKNTVYLQMNSLKPEDTAVYYCAAKTWSWSYGYNYWGQGTQVTVSS | low polyreactivity |
| QVQLEESWGGLVQAGGSLRLICAASGSIFSYYAMGWYRQAPGKERELVAVITSGGSTYYADSVKGRFTISRDNAKNTVYLQMNSLKPEDTAVYYCAVKYPELRTWGYYYWGQGTQVTVSS | high polyreactivity |
